# “Also recorded” adds a separate entry of the source.
# Assays:
# [1] = molecular target: T1, PKCα catalytic domain (Homo sapiens, UniProt P17252); experiment: Kinase activity assay (ATP consumption, Kinase-Glo Max); format: biochemical; conditions: for Kinase activity toward the peptide substrate, in words: 500 μM peptide, isolated catalytic domain
# T1 construct: All activity assays were performed with 50 nM isolated catalytic domain in PKC Buffer; fused substrate peptide with the fluorophore next to it (N, cleaved yes); second fluorophore of the mCerulean/mCitrine pair (next to the catalytic domain) (N); FLAG; made in house; host or cells: Sf9 insect cells (pBiex1), then on-resin TEV cleavage
# Experimental: All activity assays were performed with 50 nM isolated catalytic domain in PKC Buffer at 21-22° C. for 2-6 minutes. Experiments comparing the basal activity of different FRET sensors (FIG. 5A) were performed with 50 μM MBP peptide from GenScript. For all other activity experiments (FIGS. 3F, 4B, 5B, and 6B), the final peptide concentration was 500 μM. Activity was measured by monitoring ATP consumption with the Kinase-Glo Max Luminescence Assay Kit (Promega; Madison, Wis.). End-point luminescence was measured in white, 96-well plates using a M5e Spectramax spectrophotometer (Molecular Devices; San Jose, Calif.). For each experimental condition, ≥2 independent experiments were performed for ≥3 protein preparations (N≥6).
# Kinase specific activity was inferred from the ATP consumed in phosphorylation reactions using the KINASE-GLO® Max Luminescence Assay Kit (Promega; Madison, Wis.). ATP depletion was monitored with the KINASE-GLO® Reagent, which uses luciferin, oxygen, and ATP as substrates in a reaction that produces oxyluciferin and light. The luminescent signal is linearly proportional to the amount of ATP remaining following the phosphorylation reaction.
# Activity assays were performed using the catalytic domain (25-75 nM) and 500-μM peptide in PKC Buffer. Reactions were initiated by the addition of 250 μM ATP to a total reaction volume of 80 μL in U-bottom, white 96-well plates. Following a 3 minute incubation at 22° C., reactions were quenched and subsequent steps were performed as per instructions from the kit provider. End-point luminescence was measured in a FLEXSTATION® 3 plate reader (Molecular Devices). […] For each experimental condition, ≥2 independent measurements were performed for ≥3 protein preparations (N≥6).
# [2] = molecular target: T1, PKCα catalytic domain; experiment: Steady-state FRET measurements of peptide sensors; format: binding; conditions: for Binding strength of the peptide to the catalytic domain (steady-state FRET ratio), in words: 10 nm ER/K linker sensors; for Peptide interaction with the catalytic domain on addition of nucleotide (ΔFRET): 100 μM compound, alanine-substituted peptide sensors
# Experimental: All experiments were performed with 30-50 nM protein in PKC Buffer at 21-22° C. Samples were prepared in tubes pre-coated with 0.1 mg/mL BSA to limit protein sticking to tube walls. Protein samples were excited at 430 nm (mCer) with an 8-nm band pass, and emission monitored from 450 to 650 nm. The FRET ratio was calculated from the ratio of the emission for mCit (525 nm) to mCer (475 nm). Final concentrations of 100 μM ATP, 100 μM ADP, 100 μM Sangivamycin, or BimI were added as indicated. For each experimental condition, ≥3 independent protein batches were used and at least two replicates were measured for each independent experiment (N≥3).
# Protein-protein interactions in live cells using SPASM FRET sensors have been extensively monitored as described elsewhere (Sivaramakrishnan and Spudich, supra; Swanson et al., supra; and Malik et al., J Biol. Chem. 288:17167-17178, 2013). FRET measurements provide a direct measure of the binding strength of the substrate peptides to the kinase catalytic domain (Sivaramakrishnan and Spudich, supra; and Sommese et al., J. Biol. Chem. 292:2873-2880, 2017). Before each experiment, purified sensors were centrifuged (17645 g, 4° C.) to remove any insoluble protein. All experiments were performed with 50 nM protein in PKC Buffer at 21-22° C. Samples were prepared in tubes pre-coated with BSA (0.1 mg/ml) to limit protein loss through adsorption to tube walls. FRET measurements were performed using FluoroMax-4 fluorometer (Horiba Scientific). Sensors were loaded in a quartz cuvette (1 cm path length) and excited at 430 nm with an 8-nm band pass, and emission was monitored (4-nm band pass) from 450 to 650 nm. The FRET ratio was calculated from the ratio of the emission for mCitrine (525 nm) to mCerulean (475 nm). For each experimental condition, ≥2 experimental replicates were measured for ≥3 independent protein batches (N≥6).
# [3] = molecular target: T1, PKCα catalytic domain; experiment: Time-resolved fluorescence decay (TCSPC) of peptide-catalytic domain FRET sensors; format: binding; conditions: means ± SEM, N = 3; for Mol Fraction Bound / Mol Fraction Unbound: eGFP/mCherry sensors, PKC Buffer containing 100 μM ATP; for Mol Fraction Bound: A2/(A1+A2); for τ2: second lifetime of bi-exponential fit, τ1 fixed to donor linker control (2.56 ± 0.01 ns)
# Experimental: FIG. 4A is a graph plotting a comparison between steady-state FRET and fractional binding for four alanine-containing peptide sensors. For fractional binding, fluorescence decay single photon counting data was fit to I(t)=A1e^−t/τ^1+A2e^−t/τ^2, where τ1 was set to the lifetime of a 10 nm ER/K linker control (see, TABLE 1). The mol fraction of the bound state(s) was calculated as A2/(A1+A2).
# Time-resolved fluorescence decay measurements were taken by single photon counting (SPC-130-EM, Becker & Hickl) using a 485 nm sub-nanosecond pulse diode laser (PicoQuant), a 519 bandpass filter, and a PMH-100 photomultiplier module (Photonics Solutions) (Autry et al., J. Biol. Chem. 287:39070-39082, 2012). Sensors contained the eGFP and mCherry FRET pair, and all experiments were performed with 50-100 nM protein in PKC Buffer containing 100 μM ATP and 0.1 mg/mL BSA. Data were fit to the second exponential decay, I(t)=A1e^−t/τ^1+A2e^−t/τ^2, where τ1 was set to the lifetime of a 10 nm ER/K linker control. Each experimental condition was collected from three independent protein batches (N=3).
# Time-correlated single photon counting (TCSPC) was used to test whether changes in steady-state FRET reflect changes in fractional binding of the peptide to the catalytic domain (FIG. 1). TCSPC is a method for measuring time-resolved fluorescence that provides information on complex decay kinetics and population states (Lakowicz, Principles of Fluorescence Spectroscopy, 3rd ed., Springer, New York, 2006). Using this method, the relative population of interacting to non-interacting species was measured for four peptide sensors displaying a range of steady-state FRET ratios (FIG. 2).
molecule,measurement,setting,value
"12: peptide substrate RRFKRQGSFFYFF, SEQ ID NO:26, Optimized PKCζ Sub. [Peptide 12]","Kinase activity toward the peptide substrate, in words",[1]; listed as p12,lowest kinase activity; also recorded: poor activity
same,Effect on catalytic turnover with low affinity-high activity peptide #6,[1]; equimolar peptides #6 and #12,essentially inhibited
NRFARKGALRQKNV [Peptide 14],"Binding strength of the peptide to the catalytic domain (steady-state FRET ratio), in words",[2],bound more strongly
same,Inhibition of ATP turnover of the catalytic domain for serine-containing peptide #14,[1]; equimolar competing peptide,significantly better at inhibiting catalytic activity
"11: peptide substrate FKLKRKGTFKKFA, SEQ ID NO:35, Optimized PKCβ Sub.; Ala-substituted sensor form SEQ ID NO:23 [Peptide 11]",Mol Fraction Bound,[3],0.15 ± 0.01
same,Mol Fraction Unbound,[3],0.85 ± 0.01
same,τ2,[3],0.88 ± 0.06 ns
same,"Kinase activity toward the peptide substrate, in words",[1],poor activity
same,Activity of the peptide FRET sensor for the same substrate,"[1]; 10 nm linker sensors, 50 μM MBP peptide",much lower activity
NRFARKGDLRQKNV [Peptide S14D],"Binding strength of the peptide to the catalytic domain (steady-state FRET ratio), in words",[2],decreased affinity
"3: peptide substrate LAGGFSFKKNK, SEQ ID NO:8, from MARCKS (KLAGFSFKKNK) [Peptide 3]","Kinase activity toward the peptide substrate, in words",[1],high activity
"10: peptide substrate RRRRSIIFI, SEQ ID NO:22, Optimized PKA Sub.; Ala-substituted in FRET sensors [Peptide 10]",Mol Fraction Bound,[3],0.16 ± 0.01
same,Mol Fraction Unbound,[3],0.84 ± 0.01
same,τ2,[3],0.83 ± 0.06 ns
same,"Kinase activity toward the peptide substrate, in words",[1],poor activity
"CN(C)CCCn1cc(C2=C(c3c[nH]c4ccccc34)C(=O)NC2=O)c2ccccc21 [BimI, Bisindolylmaleimide I, reference compound]",Effect on the ATP-dependent substrate-kinase interaction (steady-state FRET),"[2]; peptide #8 and #11 sensors, 100 μM ATP, BimI titration",abrogated
"6: peptide substrate ASQKRPSQRH, SEQ ID NO:14, from Myelin Basic Protein; Ala-substituted in FRET sensors [Peptide 6]",Mol Fraction Bound,[3],0.08 ± 0.01
same,Mol Fraction Unbound,[3],0.92 ± 0.01
same,τ2,[3],0.49 ± 0.05 ns
"8: peptide substrate IVRKATLRRLL, SEQ ID NO:18, from EGF Receptor; Ala-substituted sensor form SEQ ID NO:17 [Peptide 8]",Mol Fraction Bound,[3],0.11 ± 0.01
same,Mol Fraction Unbound,[3],0.89 ± 0.01
same,τ2,[3],0.66 ± 0.06 ns
same,"Binding strength of the peptide to the catalytic domain (steady-state FRET ratio), in words",[2],medium binding
"2: peptide substrate RVVGGSLRGAQ, SEQ ID NO:6, from PTP1B [Peptide 2]","Kinase activity toward the peptide substrate, in words",[1]; listed as p2,high kinase activity
"9: peptide substrate ARKRERTYSFGHHA, SEQ ID NO:20, Optimized AKT Sub. [Peptide 9]","Binding strength of the peptide to the catalytic domain (steady-state FRET ratio), in words",[2],medium binding
"1: peptide substrate ADKRRSVRIGA, SEQ ID NO:4, from Kit/SCRF; Ala-substituted in FRET sensors [Peptide 1]","Kinase activity toward the peptide substrate, in words",[1],high activity
"NC(=O)c1cn([C@@H]2O[C@H](CO)[C@@H](O)[C@H]2O)c2ncnc(N)c12 [Sangivamycin, reference compound]",Peptide interaction with the catalytic domain on addition of nucleotide (ΔFRET),[2],also occurred
"Nc1ncnc2c1ncn2[C@@H]1O[C@H](COP(=O)(O)OP(=O)(O)O)[C@@H](O)[C@H]1O [ADP, reference compound]",Peptide interaction with the catalytic domain on addition of nucleotide (ΔFRET),[2],also occurred
"Nc1ncnc2c1ncn2[C@@H]1O[C@H](COP(=O)(O)OP(=O)(O)OP(=O)(O)O)[C@@H](O)[C@H]1O [ATP, reference compound]",Peptide interaction with the catalytic domain on addition of nucleotide (ΔFRET),[2],significant increase

# — patent US20200181677A1, “SCREENING SYSTEM AND METHODS FOR IDENTIFYING ENZYME SUBSTRATES AND MODULATORS OF ENZYME ACTIVITY” (Regents of the University of Minnesota, priority 2017, published 2020)
